Data on 21 sequences can be found in the DeepSol protein solubility set.

The nature of this series: soluble on expression in E. coli; label from the status in PepcDB or PDB records.
As for “MKRFFLFILPVLLVITACKAPEEIVLPDKNLNVADRTIVYKKEPYTGKLVLPKSPRGNEGYMYVKDGHLEGNAEIKNEKDGFLLKYNINAGKFQGELLYKSGDGQLTLNVDKGVILSMQMSNDKEKTEYNFTFTDGLANGVFRHENKKNTAEIVFTDGMAKIENDGNIDVEAKFSINQNTWMITMESFVDGKSYSKTEKFLGINLETIEDIVFSSIEDYKTQK”, the “soluble on expression in E. coli” value is reported as “not soluble”. “MAHHHHHHMGVDVGESAIGVDAVARPIGYGPFSAAAKARLAREKAHKAVETCDSAAAAASATVMKNVSLDTNLYLRLSLAGLPHPSQLQEWAYTSPEWRLAFVRLYRTILRLHNKAVAVSLRTARRQGSEAALSAATGMRATSQTTVAGAAVAATGADNSLAEDKDDYFLRYLLTPDQQEFGNRFVQEEFARHTDADAVAASIFYASWYEYVLQLASGVTAREMTEKEKRILTDEQKETLNSLRSAFLDLRSSQRPKYMP”: the “soluble on expression in E. coli” value is “not soluble”. For the sequence “MSLARTRILIVDDEDSIRFGMRDFLESRGYGVVDADSCQRARELFQASPPDVAVIDYRLHDGSAIDLLRDFRQIDADVPMIVLTAYGSIDLAVQAVKEGAEQFLTKPIEMPALHVILKRLLATRRLQRQQQVVATRDRRERVNPLSGGSPAIRDLAEQASKVMHTDSPILILGETGTGKSLLAKWLHHHGMRADEAFVDLNCAGLSPDFLETELFGHEKGAFTGATASKQGMLEIADGGTVFLDEIGDVDPRVQPKLLKVLEEKRFRRLGAVREREVDIRLIAATHHDLASKVKEGTFRSDLYFRISSIPLTMPALRDRKEDIVPLARTLLARSLADPSRTPQLTDDAALALREYAWPGNIREGHHHHHH”, the “soluble on expression in E. coli” value is on record as “not soluble”.

In the case of “MKYDTSELCDIYQEDVNVVEPLFSNFGGRSSFGGQIITVKCFEDNGLLYDLLEQNGRGRVLLVDGGGSVRRALVDAELARLATQNEWEGLVIYGAVRQVDDLEELDIGIQAIAAIPVGAAGEGIGESDVRVNFGGVTFFSGDHLYADNTGIILSEDPLDIE”, the “soluble on expression in E. coli” value was “not soluble”. The result for “HMIFAKGHGTQNDFVLLPDVDAELVLTAARVAALCDRRKGLGADGVLRVTTAGAAQAVGVLDSLPEGVRVTDWYMDYRNADGSAAQMCGNGVRVFAHYLRASGLEVRDEFVVGSLAGPRPVTCHHVEAAYADVSVDMGKANRLGAGEAVVGGRRFHGLAVDVGNPHLACVDSQLTVDGLAALDVGAPVSFDGAQFPDGVNVEVLTAPVDGAVWMRVHERGVGETRSCGTGTVAAAVAALAAVGSPTGTLTVHVPGGEVVVTVTDATSFLRGPSVLVARGDLADDWWNAMG” reads “soluble”; that for “SIVKMLLFQETARHSRAEGEPGASHSGSKQDKVPSSEEGTGCDASVCEAAAATHCEKDVTVSDTENVSSSKNILSHDPDVGTDTMEKEEKTHHACQEMELKVDQSSESTNPTEAELSSETRQGLQLTSGDVGIDQFLRQGDEPKSVNSDASDPGSVRLEPLTPSEVLEYEATEILHDGDDPSANTSDTVSDQTGGSPGGSNPCRAETAVDLADGEERS”, “soluble”. The result for “MRFIADLVHEKKQLVEKAEAILNEAEKAGGSLTKEQEQQFNRYKDRITRINDSIDEELSKIRTSEPILNMPHNPMAREDVSKIPVTKAISKSFRGMFYGNETVSLSNNGFHSMDEFLRTLHSGRADNRLINASMVEGIPEFGGYSVPEEYGAFLMDKSLENEIIRPRATVWAMGSETKKVSAFDGADRTNHLFGGISGEWLEEGQTGTRKTAKLRLIQLKAKKLACFSQASNELIADGMSFEEMLAGALIKGLGWYMDYAFINGTGEGQPLGIINDPALITVNKEASQEPATITYQNVVNMFSRLAPSCFTNAVWLANPSVIPQLLTMTITIGTGGAQIPVFREESGKFTLLGKEVLFTEKCPTLGAKGDLILADLSQYAIGMRKEIALDRSNVPGWMEDMTDYRVIVRVDGQGTWDKPITPKNGATLSWAVALEAR” reads “soluble”; that for “MKIKWLGHACFLLTSDNGIRVVTDPYDNTVGYKVEKIDAEIVSTSHDHYDHNYVDMVSENAKHVKSEGKTNIDGIEITGVTSFHDDCKGAKRGKNVIFKFKIDGIDVCHLGDLGHVLSDSQVREIGNVDVLLVPVGGVYTIDYKGAVEVMKLVNPKITIPMHYKTPALSFDVDGVENFLSATGGKHIGKQEIELKKDEIENWPKVVALDYQ”, “soluble”; that for “MEDKTLGLLLDVVGELFSDEISIAVSNTKEYIYYRPSKRIDLKISAGDPIKEGTIAHKAMVTNQKTSEFMNRDVFGIPYHGMAVPFSNNGKLEGCVTAIYPALTDGKSVVTLKTTDGWIPVPFSKVMYLEAKDKKTYVNAEELTGTHKYSLQEFEYLLPKDSFIRCHRSFIVNVNHIKAIYPDTHSTFLLSMDNGERVPVSQSYASYFRKLLGF”, “soluble”. Regarding “MAHHHHHHMNVKVEEGHPYNSYAEIKKRKTKKKKYIQNGRAGNNVEDNVDDNVEDNVGNNVDDNVEDNVGNNVDDNVDNNVDDNVKNRLSPKNNEKSNPRHKKKNTSKSPICDGRKKDIEFHTLYESDEKNNMVSRRSSVESIGEEKDMKADVKKNDINYKVKLNTLMLQSYLHKSYDKVSNILKKTSQTFMKKSLSYETEKVDDKTGNNIQNNNNEKNETHGNINYDQDDFVQNFNKIFNNMIENPTNDLSEEEKKFFEQNSQCINKMLHENASCQKNKKEKILKKYKKKIIENKDISSLYDKFKELLDERTLLFKLIIYYKNINYNYKQHIDKIQHSYDILISENEQLNLNNITLKKHIDLFRKGDNIKRDDNEYVK”, the “soluble on expression in E. coli” value is “soluble”. With “MERPLARNEVTRLGPDSKFHHAGLRRGLSPATLRKLDAISRLRVFPRDAVVVPQGGALEYVGNVVRGVLRMERLLSDGRSQIVGLLVPTDMFGRVFSERSDYSVEAATEVTLCCFERHAFEALVRTCPDLEHAVLLAVLDELDAAREWITLRAGPTVAARLATYLLMLCRRWPHQTSELTQDAKRIVVNVPIARNDLAHYLGTTVESISRAVQAFSRDGIISILTPLRFEILDLPALIALSDNEEFDAHALLEGLREEQRVSP” the entry was “not soluble”; with “MIQKGLEGVKICESSICYLDGINGRLYYRGIPVEELAEKSTFEETAYFLWYGKLPTKSELEEFKRKMADYRELPAEALGILYHLPKNLHYIDVLKIFLSIHGSMDGNDEDLREKAIRVASVFPTILAYYYRYSKGKELIRPRKDLSHVENFYYMMFGERNEKIRLLESAFILLMEQDINASTFAALVIASTLSDLYSCIVGALGALKGPLHGGASEKVPPMLEEIGSEDRVEEFVQKCLKEKRKIMGFGHRVYKTYDPRAVFLKRVLQEHFPDSKLFRIASKLEEYIVSNKIKNIYPNVDLYSSVLFEELGFPRNMFTALFATARVVGWTAHVIEYVSDNKLIRPTSEYVGPMDVEYIPIERRDENG”, “soluble”. For the sequence “AIAASLSDQSGSIGSEQTRPSGAIPVESLPPQALEQLIASLQQEVEQLADALQQLNFANQRWTLCKQSIEAFAEETTRVDLPGAQSRATDAISSTASAKPETSVEVNQNQRLLVPLSRSLYVLGRVINPERCLIDIGTGYHVERKLADAAEFFDRRLKHVRGSMRQLTLKIDQNQQQMQTIREILVRKLAGAQQAAEHT”, the “soluble on expression in E. coli” value is given as “soluble”. Consider “MTPFKELQKFIHWKERFLRDYEKIEKGELEKIREEVKEMLGEEPDERLLKALRSMYVGGMEHRVEDEEIRYWTNWGGVKTYETFNRFPLLSDIELAFVFWALGKLFVPLLMHETGVKSEPFKKLSREEQEEAVLDELDTLWETQLTLILQALQFLDLKSISSEKPSSEG”, for which the “soluble on expression in E. coli” value is “not soluble”.

In the case of “MGSDKIHHHHHHMTRIASHRGGTLEFGDSTPHGFTATAAMALEEVEFDLHPTADGAIVVHHDPTLDATTDMTGAIVDMTLAKVKTATIRYGAGSHPMTLEELCALYVDSHVNFRCEIKPGVDGLPYEGFVALVIAGLERHSMLERTTFSSFLLASMDELWKATTRPRLWLVSPSVLQQLGPGAVIETAIAHSIHEIGVHIDTADAGLMAQVQAAGLDFGCWAAHTPSQITKALDLGVKVFTTDRPTLAIALRTEHRMEASV”, the “soluble on expression in E. coli” value is reported as “not soluble”. “METESWKLLESSIIYYEGNPIGTVAAQDPELAALNYDQCFLRDFVPSAFVFLMDGQTDIVRNFLIETLTLQSHEKEMDCFQPGAGLMPASFKVESDGSKEYLVADFGEKAIARVPPVDSCMWWILLLRAYEKATGDLTLAREPKFQAGIKLILDLCLAHRFSMYPTMLVPDGAFMIDRRMGVYEHPLEIQVLFYAALRAARELLLPDGDGEQYLNKVHGRLGALQYHIRNYYWVDLKRLREIYRYKGNEFGKEIANKFNIFSQSIPDWVIEWLPEKGGYLAGNLGPGRMDFRFFALGNLMAILAGLASEEESQRIMNLFAHRWEDLIGYMPVKICYPALQGLEWQIVTGCDPKNIPWSYHNGGNWPVLLWLFTAAALKTGKVELAHEAIAIAEGRLSNDKFPEYYDGNNGRLIGKEARIYQTWSIAGLLVAKQFLANPDHVEFISFPDTFIGPGCSLLEHHHHHH”: the “soluble on expression in E. coli” value is reported as “soluble”. Take “MGSDKIHHHHHHMSSASLLWCHSGVSTVRFGERIFTLVAGDLLFAPEEAQVADDSQGLVLNIRFETLNIMGPARRIHLGHVWNDRLTFEYSRSLFGKETLSPDIARLFTDRVPTPPLPAPRKARAVAQVLVSNPADQTSLEEFAEIQGVSARTLQRQFLKSTGYSFSEWRAAQRVCVAASLLAHDFSISVVANLVGFAATSSLTRAFRRHTGATPSTFTTGQIGMGSAGHPPRIPATTTFAEAHQDQQLWIYSGTATVTTPGYCRFMGQGDMVTIPAGTQTRIDVAAGSIAFPVPVGLDEWGMDLTRVVAVNNQQPKPLTILEQSEWSKLSEELLNTPVPVQM”: the “soluble on expression in E. coli” value is recorded as “not soluble”. Take “MAGDPMKAREVEFEGHLIDSMIFTKALDIILDLDGEFEILEFRVGKKKDDPSYARMIVFGRDDAHLEQILKELHKIGARIPDIEEVELAEAPADKVLPDGFYVTTNHPTFVRYGGEWLPVEDISMDRVIVIRDGRAYCIPIDEVVRGDRVVVGEKGVRVVPPERPRKSTVFEFMGGRVSSERPTERMIEAIAREIYELKLKGGKIAVVAGPAVDHTSARNALAALIRDGYVDLLLSGNALAVHDIEISIFGTSLGMDICKGRPVPGGNRHHLYTISKVIAAGGIKKAIEKGIIKDGIMYECVKNNVPFILAGSIRDDGPLPEVITDVMVAKKKMKEALRGINMVIMLATMLHSIAVGNLLPSYVKTICVDMNPSTVTKLMDRGTHQAIGVVTDVGLFLPLLYLKIKEIEAKELEHHHHHH”: the “soluble on expression in E. coli” value is “soluble”. Consider “MNQPIELSLEQQFSIRSFATQVQNMSHDQAKDFLVKLYEQMVVREATYQELLKHQWGLDSGSTPA”, for which the “soluble on expression in E. coli” value is “soluble”. Regarding “MNQEQNDIAIRVSNLSKCYHIYDTPRDRLKQFILPRLHHLTGQTPRQYFREFWALRDVSFEVKKGETIGIIGRNGSGKSTLLQMICGTLNPTSGSITTYGRIAALLELGSGFNPEFTGRENVYMNASVLGLSQEETDARFDDIAAFADIGEFIEQPVKTYSSGMMVRLGFAVQAQVKPDILIVDEALAVGDAKFQAKCFDRLQQLKDGGTSILLVTHSSEQIVTHCSEAILLDGGDVIEHGEPRYVVNHYMDLLFGKERKSYSASAFSTESNSVEPTQDDNLSLNFIDDVFSSHANYNEHEYRWGDGTATILDFYLLTDNEPYPSVITSGQSVVLGVAVRFYEDLVRPILGITIKTKEGVTVYGVNSETLETDEIKVLGSKGTTALIKAEFICRLAPGDYFISLGLATRKGEEIVPHDRRYDAIYLQIAPVTKFFGLVDLGLKLSAQNTSLLEHHHHHH”, the “soluble on expression in E. coli” value is “soluble”. For “MGSDKIHHHHHHMADKRTEGSGKGGAKAAGKGGLGEVVLLSGGNPQIAKGYGDAPVQAYIAAMPGWKRAVGERLDAIVERTVPGVYKAVKWNSPFYGFEGEGWFLSFHCMTKYIKVAFFRGASLQPLPPGASKQKDVRYLDIYEDAPFDEARFADWVAQASRLPGERM”, the “soluble on expression in E. coli” value is listed as “not soluble”.
